# In PMC10681739, “High-throughput data and modeling reveal insights into the mechanisms of cooperative DNA-binding by transcription factor proteins”:
# B1: Table S2 B row 3871 (dsDNA)
# DNA 1: CCTGAGAGATCCGGCGCGCGTCTTCCACCAAAATGC
# DNA 2: GCATTTTGGTGGAAGACGCGCGCCGGATCTCTCAGG
# B2: Table S2 B row 1799 (dsDNA)
# DNA 1: AGCGGCCGAAGGAAGTGACGTTTGGGGCAGTAAGGC
# DNA 2: GCCTTACTGCCCCAAACGTCACTTCCTTCGGCCGCT
# B3: Table S2 B row 1447 (dsDNA)
# DNA 1: GCAGAAGGAAGTGTGGCTTGGCGCCGTGGCTCACAC
# DNA 2: GTGTGAGCCACGGCGCCAAGCCACACTTCCTTCTGC
# B4: Table S2 C row 199 (dsDNA)
# DNA 1: AGCTCAGGCACCAGCTGAGGTTTGGCATTTGCTGGC
# DNA 2: GCCAGCAAATGCCAAACCTCAGCTGGTGCCTGAGCT
# B5: Table S2 C row 51 (dsDNA)
# DNA 1: CTTGGGAGTCCCTGCCGCGGTGACTCCCTGGGAGCT
# DNA 2: AGCTCCCAGGGAGTCACCGCGGCAGGGACTCCCAAG
# B6: Table S2 B row 1617 (dsDNA)
# DNA 1: ACCACCCCCAGAGACAAACTCACATCCTCTCCCTAG
# DNA 2: CTAGGGAGAGGATGTGAGTTTGTCTCTGGGGGTGGT
# B7: Table S2 B row 234 (dsDNA)
# DNA 1: GGGGGAATGTAGGAAGTATCATCGCCTACAAGAAAG
# DNA 2: CTTTCTTGTAGGCGATGATACTTCCTACATTCCCCC
# B8: Table S2 B row 3361 (dsDNA)
# DNA 1: GAACTACGTTTCCCGGCATGCACTGCAGGCCGCCGG
# DNA 2: CCGGCGGCCTGCAGTGCATGCCGGGAAACGTAGTTC
# B9: Table S2 B row 3719 (dsDNA)
# DNA 1: GACCTGGGCAGGAAGAGCGGCATTTGGGGCCCCCTG
# DNA 2: CAGGGGGCCCCAAATGCCGCTCTTCCTGCCCAGGTC
# B10: Table S2 B row 2956 (dsDNA)
# DNA 1: CTCTGAAGGAAGTGATGTTAGACGGCTGTAGGTGGT
# DNA 2: ACCACCTACAGCCGTCTAACATCACTTCCTTCAGAG
# B11: Table S2 B row 2446 (dsDNA)
# DNA 1: GGAACGGAGGCGGAAGGGGCCCTTCGGCGACGACGT
# DNA 2: ACGTCGTCGCCGAAGGGCCCCTTCCGCCTCCGTTCC
# B12: Table S2 B row 2233 (dsDNA)
# DNA 1: GCGCCATTTCCGCTGCGCAAGGCACCTCAGGCCCTG
# DNA 2: CAGGGCCTGAGGTGCCTTGCGCAGCGGAAATGGCGC
# B13: Table S2 B row 935 (dsDNA)
# DNA 1: CAGTGGCAGTAGCCGTTTGGCCCTTCCTGCCCTGGG
# DNA 2: CCCAGGGCAGGAAGGGCCAAACGGCTACTGCCACTG
# B14: Table S2 B row 1867 (dsDNA)
# DNA 1: TCAGGAAGTGGTGTGACCAGCATGTGAACAGCGGCA
# DNA 2: TGCCGCTGTTCACATGCTGGTCACACCACTTCCTGA
# B15: Table S2 B row 2389 (dsDNA)
# DNA 1: TCTGCACATCCGAGAAGCCTCCGTGCTTTGCTGCCA
# DNA 2: TGGCAGCAAAGCACGGAGGCTTCTCGGATGTGCAGA
# B16: Table S2 B row 1484 (dsDNA)
# DNA 1: CCCGGAAACTCAACTGCCCACTGCAGCGCCCGCCAT
# DNA 2: ATGGCGGGCGCTGCAGTGGGCAGTTGAGTTTCCGGG
# B17: Table S2 B row 3926 (dsDNA)
# DNA 1: GCTGTCCGTTTCCGAGATGTTAATGCGAGGTCTTGC
# DNA 2: GCAAGACCTCGCATTAACATCTCGGAAACGGACAGC
# B18: Table S2 B row 4028 (dsDNA)
# DNA 1: GCCTGAAGGACTTCCGGGAACCGAAAAGCACGGTGT
# DNA 2: ACACCGTGCTTTTCGGTTCCCGGAAGTCCTTCAGGC
# B19: Table S2 B row 40 (dsDNA)
# DNA 1: TTGCGTCATTTCCGAGAGACTTTCGCGCCGCTGTTT
# DNA 2: AAACAGCGGCGCGAAAGTCTCTCGGAAATGACGCAA
# B20: Table S2 B row 2753 (dsDNA)
# DNA 1: AGTTGCTTCCTAATCCTGCTGAGCCATTAGCCCCAA
# DNA 2: TTGGGGCTAATGGCTCAGCAGGATTAGGAAGCAACT
# B21: Table S2 B row 3245 (dsDNA)
# DNA 1: GCGCCCGGAAGGAAGGCTGGGGTAGGTTGTAGTTTC
# DNA 2: GAAACTACAACCTACCCCAGCCTTCCTTCCGGGCGC
# B22: Table S2 B row 1508 (dsDNA)
# DNA 1: GCTCCCTTCCTGAGCCTCTGCTGGCCTCACCAGAGG
# DNA 2: CCTCTGGTGAGGCCAGCAGAGGCTCAGGAAGGGAGC
# B23: Table S2 B row 411 (dsDNA)
# DNA 1: CGCCCTCCGGAAGAGAGGGCGGACAGCGCCCGCGCC
# DNA 2: GGCGCGGGCGCTGTCCGCCCTCTCTTCCGGAGGGCG
# B24: Table S2 B row 2750 (dsDNA)
# DNA 1: CTAGTCTGTTTCCTCATCTGCCGCCTGCACGCCCGC
# DNA 2: GCGGGCGTGCAGGCGGCAGATGAGGAAACAGACTAG
# B25: Table S2 B row 3244 (dsDNA)
# DNA 1: CCCGCTGTCACTTCCTGCTTCCCTCCCGCGCACGTG
# DNA 2: CACGTGCGCGGGAGGGAAGCAGGAAGTGACAGCGGG
# B26: Table S2 B row 3799 (dsDNA)
# DNA 1: GCAAAGATACATCCTTCTCCCCAGAGACTAAGTTTC
# DNA 2: GAAACTTAGTCTCTGGGGAGAAGGATGTATCTTTGC
# B27: Table S2 C row 184 (dsDNA)
# DNA 1: CCAGCTAAGCGAGGGGCCGCAGGGAGCGCGGCCTCG
# DNA 2: CGAGGCCGCGCTCCCTGCGGCCCCTCGCTTAGCTGG
# B28: Table S2 C row 98 (dsDNA)
# DNA 1: AAAACCATCTTTAGGACCGCGGCCCCTTTAAGCGGC
# DNA 2: GCCGCTTAAAGGGGCCGCGGTCCTAAAGATGGTTTT
# B29: Table S2 B row 3605 (dsDNA)
# DNA 1: GGGCTTCCCGGGTACAAAAATGGCTGTCGCTAGCGA
# DNA 2: TCGCTAGCGACAGCCATTTTTGTACCCGGGAAGCCC
# B30: Table S2 B row 1479 (dsDNA)
# DNA 1: CAGATTCCCGGAAAGGGGGACATGTAGCCGCCAAAG
# DNA 2: CTTTGGCGGCTACATGTCCCCCTTTCCGGGAATCTG
# B31: Table S2 C row 16 (dsDNA)
# DNA 1: AAAAGCCCATGGGCACCCACAGCTTTGTCACAGTGC
# DNA 2: GCACTGTGACAAAGCTGTGGGTGCCCATGGGCTTTT
# B32: Table S2 B row 2231 (dsDNA)
# DNA 1: GCGCCCTCCAGGAAACGCCGCGATTTACTGTCTGCC
# DNA 2: GGCAGACAGTAAATCGCGGCGTTTCCTGGAGGGCGC
# Molecular target: T1, ETS1 (Homo sapiens, UniProt P14921)
# T1 sequence: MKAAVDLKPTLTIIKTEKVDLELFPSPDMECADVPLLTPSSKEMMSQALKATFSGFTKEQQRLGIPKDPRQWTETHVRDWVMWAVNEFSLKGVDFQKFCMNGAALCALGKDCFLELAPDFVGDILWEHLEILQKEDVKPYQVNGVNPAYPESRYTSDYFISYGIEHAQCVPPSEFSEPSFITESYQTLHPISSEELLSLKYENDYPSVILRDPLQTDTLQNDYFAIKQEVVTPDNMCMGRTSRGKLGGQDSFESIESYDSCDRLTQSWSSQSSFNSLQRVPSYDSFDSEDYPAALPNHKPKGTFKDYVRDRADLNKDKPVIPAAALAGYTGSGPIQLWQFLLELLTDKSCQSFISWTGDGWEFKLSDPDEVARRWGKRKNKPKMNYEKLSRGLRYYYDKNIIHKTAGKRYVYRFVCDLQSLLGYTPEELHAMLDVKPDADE
# Assay: gcPBM; 1 nM ETS1
# Settings: tags: N-terminal GST (pDEST15), kept (PMC6008103); label: surface-attached array probe
row,Binder,binding signal
1,B1,"1260 PBM fluorescence, median of replicate spots"
2,B2,"1090 PBM fluorescence, median of replicate spots"
3,B3,"817 PBM fluorescence, median of replicate spots"
4,B4,"296 PBM fluorescence, median of replicate spots"
5,B5,"261 PBM fluorescence, median of replicate spots"
6,B6,"1010 PBM fluorescence, median of replicate spots"
7,B7,"948 PBM fluorescence, median of replicate spots"
8,B8,"787 PBM fluorescence, median of replicate spots"
9,B9,"1120 PBM fluorescence, median of replicate spots"
10,B10,"910 PBM fluorescence, median of replicate spots"
11,B11,"869 PBM fluorescence, median of replicate spots"
12,B12,"18700 PBM fluorescence, median of replicate spots"
13,B13,"882 PBM fluorescence, median of replicate spots"
14,B14,"936 PBM fluorescence, median of replicate spots"
15,B15,"803 PBM fluorescence, median of replicate spots"
16,B16,"830 PBM fluorescence, median of replicate spots"

row,Binder,binding signal
1,B17,"1060 PBM fluorescence, median of replicate spots"
2,B18,"19300 PBM fluorescence, median of replicate spots"
3,B19,"1300 PBM fluorescence, median of replicate spots"
4,B20,"1170 PBM fluorescence, median of replicate spots"
5,B21,"1030 PBM fluorescence, median of replicate spots"
6,B22,"849 PBM fluorescence, median of replicate spots"
7,B23,"1330 PBM fluorescence, median of replicate spots"
8,B24,"985 PBM fluorescence, median of replicate spots"
9,B25,"19700 PBM fluorescence, median of replicate spots"
10,B26,"1150 PBM fluorescence, median of replicate spots"
11,B27,"274 PBM fluorescence, median of replicate spots"
12,B28,"284 PBM fluorescence, median of replicate spots"
13,B29,"1230 PBM fluorescence, median of replicate spots"
14,B30,"1360 PBM fluorescence, median of replicate spots"
15,B31,"288 PBM fluorescence, median of replicate spots"
16,B32,"1190 PBM fluorescence, median of replicate spots"
